Each binder was assayed against human MMP-12 (human, UniProt P39900 106-470, limits assumed) (assay: cell-based or functional assay).
Sequence of human MMP-12 (P39900 106-470 limits assumed): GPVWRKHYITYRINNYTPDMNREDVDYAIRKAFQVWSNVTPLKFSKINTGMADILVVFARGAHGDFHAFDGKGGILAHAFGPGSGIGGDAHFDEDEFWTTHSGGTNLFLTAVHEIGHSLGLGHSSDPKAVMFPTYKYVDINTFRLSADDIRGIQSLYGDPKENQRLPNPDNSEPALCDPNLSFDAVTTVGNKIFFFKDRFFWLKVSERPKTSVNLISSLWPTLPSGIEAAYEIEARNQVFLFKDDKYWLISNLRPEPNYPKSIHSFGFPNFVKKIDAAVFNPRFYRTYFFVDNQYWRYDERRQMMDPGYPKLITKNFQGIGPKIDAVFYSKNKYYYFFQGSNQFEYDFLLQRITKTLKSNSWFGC

Binder | IC50 (nM), IgGs [nM] | IC50 (nM), large scale purified Fabs [nM]
539A-M0014-C09 IgG (antibody, V domains shown) VH: EVQLLESGGGLVQPGGSLRLSCAASGFTFSDYSMHWVRQAPGKGLEWVSGIGPSGGPTFYADSVKGRFTISRDNSKNTLYLQMNSLRAEDTAVYYCARGEYSSSDYYYYYGMDVWGQGTTVTVSS VL: DIQMTQSPATLSLSPGERATLSCGASQNIDGYYLAWYQQKPGQAPSLLIYDASSRSTGVPDRFSGSGSGTDFTLTISRLEPEDFAVYYCQHYGNSLWTFGQGTKVEIK | 43.3 | 
539A-M0014-G11 Fab (Fab, V domains shown) VH: EVQLLESGGGLVQPGGSLRLSCAASGFTFSWYVMVWVRQAPGKGLEWVSSIYSSGGPTKYADSVKGRFTISRDNSKNTLYLQMNSLRAEDTAVYYCAKEGGVYGGPELYYYYYGMDVWGQGTTVTVSS VL: QYELTQPPSASGTPGQRITISCSGSSSNLGSNPVQWYQQLPGSAPKLLIHTNTHRPSGVPDRFSGSKSVTSASLAISGLQSEDEAEYYCATWDDSLNGGVFGGGTKLTVL |  | 35
539A-M0014-G11 IgG (antibody, V domains shown) VH: EVQLLESGGGLVQPGGSLRLSCAASGFTFSWYVMVWVRQAPGKGLEWVSSIYSSGGPTKYADSVKGRFTISRDNSKNTLYLQMNSLRAEDTAVYYCAKEGGVYGGPELYYYYYGMDVWGQGTTVTVSS VL: QYELTQPPSASGTPGQRITISCSGSSSNLGSNPVQWYQQLPGSAPKLLIHTNTHRPSGVPDRFSGSKSVTSASLAISGLQSEDEAEYYCATWDDSLNGGVFGGGTKLTVL | 12.3 | 
539A-M0016-A11 Fab (Fab, V domains shown) VH: EVQLLESGGGLVQPGGSLRLSCAASGFTFSEYQMAWVRQAPGKGLEWVSSIYPSGGHTHYADSVKGRFTISRDNSKNTLYLQMNSLRAEDTAVYYCAKESYYDFWSGYYFDYWGQGTLVTVSS VL: DIQMTQSPSSLSASVRDRVTITCRTSQNINTYLNWYYQAPGRAPKLLIFGVSSLHRGVSSRFSGSGDGTEFTLTISSLQPEDIGTYFCQQSYSSPWTFGQGTKVEIK |  | 8.8
539A-M0016-H05 Fab (Fab, V domains shown) VH: EVQLLESGGGLVQPGGSLRLSCAASGFTFSWYAMSWVRQAPGKGLEWVSRIVPSGGDTGYADSVKGRFTISRDNSKNTLYLQMNSLRAEDTAVYYCATFRGIMYGDYGSSYWYFDLWGRGTLVTVSS VL: DIQMTQSPATLSLSPGERATLSCRASQSVSSYLAWYQQKPGQAPRLLIYDASNRATGIPARFSGSGSGTDFTLTISSLEPEDFAVYYCQQRSNWPLTFGGGTKVEIK |  | 56.6
539A-M0016-H05 IgG (antibody, V domains shown) VH: EVQLLESGGGLVQPGGSLRLSCAASGFTFSWYAMSWVRQAPGKGLEWVSRIVPSGGDTGYADSVKGRFTISRDNSKNTLYLQMNSLRAEDTAVYYCATFRGIMYGDYGSSYWYFDLWGRGTLVTVSS VL: DIQMTQSPATLSLSPGERATLSCRASQSVSSYLAWYQQKPGQAPRLLIYDASNRATGIPARFSGSGSGTDFTLTISSLEPEDFAVYYCQQRSNWPLTFGGGTKVEIK | 32.9 | 
539A-M0019-C05 Fab (Fab, V domains shown) VH: EVQLLESGGGLVQPGGSLRLSCAASGFTFSWYAMVWVRQAPGKGLEWVSYIGSSGGVTGYADSVKGRFTISRDNSKNTLYLQMNSLRAEDTAVYYCARQKRVDYYDSSGYPTNAEFDYWGQGTLVTVSS VL: QYELTQPRSVSGSPGQSVTISCTGSSSDVAGFYYVSWYQQHPGKAPKLMIRDVNDRPSGVSNRFSGSKSGNTASLTIAGLQTEDEAVYYCSSTSRSDTRVIFGGGTKLTV |  | 93
539A-M0019-C05 IgG (antibody, V domains shown) VH: EVQLLESGGGLVQPGGSLRLSCAASGFTFSWYAMVWVRQAPGKGLEWVSYIGSSGGVTGYADSVKGRFTISRDNSKNTLYLQMNSLRAEDTAVYYCARQKRVDYYDSSGYPTNAEFDYWGQGTLVTVSS VL: QYELTQPRSVSGSPGQSVTISCTGSSSDVAGFYYVSWYQQHPGKAPKLMIRDVNDRPSGVSNRFSGSKSGNTASLTIAGLQTEDEAVYYCSSTSRSDTRVIFGGGTKLTV | 24.5 | 
539A-M0020-B01 Fab (Fab, V domains shown) VH: EVQLLESGGGLVQPGGSLRLSCAASGFTFSHYVMHWVRQAPGKGLEWVSYIGSSGGETRYADSVKGRFTISRDNSKNTLYLQMNSLRAEDTAVYYCARADYGDYDYYYYYGMDVWGQGTTVTVSS VL: QYELTQPPSVSVAPGQTATITCEGNNIASKSVHWYQQKPGQAPVLVVYDDRDRPSGISERISGSNSGNTPTLTIFRVEAGDEADYYCQVSDSATDHRVFGGGTKLTVL |  | 74.8
539A-M0020-B01 IgG (antibody, V domains shown) VH: EVQLLESGGGLVQPGGSLRLSCAASGFTFSHYVMHWVRQAPGKGLEWVSYIGSSGGETRYADSVKGRFTISRDNSKNTLYLQMNSLRAEDTAVYYCARADYGDYDYYYYYGMDVWGQGTTVTVSS VL: QYELTQPPSVSVAPGQTATITCEGNNIASKSVHWYQQKPGQAPVLVVYDDRDRPSGISERISGSNSGNTPTLTIFRVEAGDEADYYCQVSDSATDHRVFGGGTKLTVL | 34.6 | 
539A-M0022-C07 Fab (Fab, V domains shown) VH: EVQLLESGGGLVQPGGSLRLSCAASGFTFSIYQMWWVRQAPGKGLEWVSSISSSGFTWYADSVKGRFTISRDNSKNTLYLQMNSLRAEDTAVYYCTTEDIGYYYGMDVWGQGTTVTVSS VL: DIQMTQSPATLSVSPGERATLSCRASQNVRNYLAWYQQKPGQAPRLLIYDASKRATGIPARFSGSGSGTDFTLTISGLEPEDFAVYYCQQRSNWPTFGPGTKVDIK |  | 24.2
539A-M0022-C07 IgG (antibody, V domains shown) VH: EVQLLESGGGLVQPGGSLRLSCAASGFTFSIYQMWWVRQAPGKGLEWVSSISSSGFTWYADSVKGRFTISRDNSKNTLYLQMNSLRAEDTAVYYCTTEDIGYYYGMDVWGQGTTVTVSS VL: DIQMTQSPATLSVSPGERATLSCRASQNVRNYLAWYQQKPGQAPRLLIYDASKRATGIPARFSGSGSGTDFTLTISGLEPEDFAVYYCQQRSNWPTFGPGTKVDIK | 13.2 | 
539A-M0027-E11 Fab (Fab, V domains shown) VH: EVQLLESGGGLVQPGGSLRLSCAASGFTFSHYEMEWVRQAPGKGLEWVSSISSSGGPTMYADSVKGRFTISRDNSKNTLYLQMNSLRAEDTAVYYCARGMYGDYDFYYYYGMDVWGQGTTVTVSS VL: DIQMTQSPDTLSLSPGERGTLSCRASQSLSSSYLAWYQQKPGQAPRLLIYDASSRATGIPDRFSGSGSGTDFTLTIGRLEPEDSAVYYCQQYGSFPLTFGGGTKVEIK |  | 23.9
539A-M0027-E11 IgG (antibody, V domains shown) VH: EVQLLESGGGLVQPGGSLRLSCAASGFTFSHYEMEWVRQAPGKGLEWVSSISSSGGPTMYADSVKGRFTISRDNSKNTLYLQMNSLRAEDTAVYYCARGMYGDYDFYYYYGMDVWGQGTTVTVSS VL: DIQMTQSPDTLSLSPGERGTLSCRASQSLSSSYLAWYQQKPGQAPRLLIYDASSRATGIPDRFSGSGSGTDFTLTIGRLEPEDSAVYYCQQYGSFPLTFGGGTKVEIK | 23.7 | 
539A-M0013-D11 Fab (Fab, V domains shown) VH: EVQLLESGGGLVQPGGSLRLSCAASGFTFSSYPMWWVRQAPGKGLEWVSGIVPSGGVTIYADSVKGRFTISRDNSKNTLYLQMNSLRAEDTAVYYCARVGWLASSDYYYYMDVWGKGTTVTVSS VL: DIQMTQSPSSLSASVGDRITISCQASQDIDNYLNWYQQRSGKAPKLLIYDAYNLKAGVPSRFRGSRSGTDFFLTISSLQPEDFATYYCQQSYRAPLTFGGGTKVEIK |  | 20.3
